Where “and” joins values, the source holds several entries; their conditions need not be identical. Identical values can stand only once.
B1: ACTN1: wild type Activin A mature protein (SwissProt/UniProt: P08476), SEQ ID 2, expressed from applicant's construct (protein)
chain: GLECDGKVNICCKKQFFVSFKDIGWNDWIIAPSGYHANYCEGECPSHIAGTSGSSLSFHSTVINHYRMRGHSPFANLKSCCVPTKLRPMSMLYYDDGQNIIKKDIQNMIVEECGCS
B2: ACTN4: activin A variant peptide, SEQ ID 5 (protein)
chain: GLECDGKVNLCCKKQLFVSFKDIGWNDWIIAPSGYHANHCSGLCPSHIAGTSGSSLSFHSTVINHYRMRGHSPFSDMGACCVPTKLRPMSMLYYDDGQNIIKKDIQNMIVEECGCS
B3: ACTN48: activin A variant peptide, SEQ ID 49 (protein)
chain: GLECDGKVNLCCKKQNFVSFKDIGWNDWIIAPSGYHANECSGLCPSHIAGTSGSSLSFHSTVINHYRMRGHSPFANMGACCIPTKLRPMSMLYYDDGQNIIKKDIQNMIVEECGCS

Columns and labels:
[1] = test system: H1 or H9 human embryonic stem cells; test: Activin A bioassay: differentiation of human embryonic stem cells to definitive endoderm, cell number and SOX17 intensity by high content analysis (96-well, four days); format: cell-based;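 on Cell Number average: Raw total cell count per well from high content imaging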;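 on Sox 17 Intensity average: total fluorescence of the cell multiplied by cell area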
Procedure, shortened: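 Read-out was cell count and integrated SOX17 immunofluorescence by high-content imaging, with each well divided by the mean of the 100 ng/ml activin A control. Over the four-day culture, test samples were given in DMEM:F12 with 0.5% FCS plus 20 ng/ml Wnt3a for the first two days and in 2% FCS alone for the last two. Cells were H1 or H9 hESC clusters grown on Matrigel.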

[2] = test system: Human Embryonic Stem Cells (H1 hESC line); test: RT-PCR of pancreatic differentiation markers at conclusion of step four of differentiation (Example 12); format: cell-based; conditions: end of step four; relative to commercial activin A or ACTN1
Procedure: Step 4 of the differentiation protocol was carried out over three days. Cells were fed daily by aspirating the medium from each well and replacing with a fresh aliquot (0.5 ml) of DMEM-high glucose supplemented with 1% B27, 100 ng/ml Noggin, 100 ng/ml Netrin-4 (R&D Systems; Cat #), 1 μM DAPT, and 1 μM Alk 5 inhibitor (Axxora; Cat #ALX-270-445). At the conclusion of the fourth step of differentiation, cells from some wells were harvested for analysis by RT-PCR to measure markers of differentiation.
RT-PCR Analysis: RNA samples were purified by binding to a silica-gel membrane (Rneasy Mini Kit, Qiagen, CA) in the presence of an ethanol-containing, high-salt buffer followed by washing to remove contaminants. The RNA was further purified using a TURBO DNA-free kit (Ambion, INC), and high-quality RNA was then eluted in water. Yield and purity were assessed by A260 and A280 readings on a spectrophotometer. […]
Unless otherwise stated, all reagents were purchased from Applied Biosystems. […] For each primer/probe set, a Ct value was determined as the cycle number at which the fluorescence intensity reached a specific value in the middle of the exponential region of amplification. Relative gene expression levels were calculated using the comparative Ct method. […] The normalized amount of target was calculated as 2-ΔCt, assuming amplification to be 100% efficiency. […]

[3] = concentrated supernatant (10x; ACTD3 4x), assay dilution 1:20
[4] = supernatant concentration 1x, assay dilution 1:20
[5] = supernatant concentration 10x, assay dilution 1:20
[6] = supernatant concentration 10x, assay dilution 1:20, assay plates #007, #009, #010
[7] = supernatant concentration 10x, assay dilution 1:40
[8] = supernatant concentration 10x, assay dilution 1:40, control = R&D Sys Activin A 100 ng/ml on same plate
[9] = supernatant concentration 50x, assay dilution 1:20, assay plates #008, #009
[10] = supernatant concentration 50x, assay dilution 1:20, control = R&D Sys Activin A 100 ng/ml on same plate
[11] = supernatant concentration 10x, assay dilution 1:20, control = R&D Sys Activin A 100 ng/ml on same plate

| Molecule | Cell Number average [1, 4] | Cell Number average [1, 5] | Cell Number average [1, 6] | Cell Number average [1, 7] | Sox 17 Intensity average [1, 7] | Sox 17 Intensity % of control [1, 8] [%] | Cell Number average [1, 9] | Sox 17 Intensity average [1, 9] | Sox 17 Intensity % of control [1, 10] [%] | Sox 17 Intensity % of control [1, 11] [%] | expression of downstream pancreatic differentiation markers (RT-PCR) [2] | further results |
| --- | --- | --- | --- | --- | --- | --- | --- | --- | --- | --- | --- | --- |
| B1 | 4284 and 5466 | 7083 and 9254 | 12543 and 11568 and 15112 | 5924 | 1.10E+08 | 480.5 | 13673 | 2.60E+08 | 470.1 | – | – | activity in the cell-based assay, as judged by cell number and SOX17 intensity increases ([1]; ACTN 1 pUnder construct versus OriGene wildtype construct, CHO-S or HEK293-F supernatants): greater activity; expression/activity of supernatant measured by SOX17 expression levels ([1]; CHOS cells, even after concentrating the supernatant): weak or negligible results; Cell Number average [1, 3]: 12233; Sox 17 Intensity average [1, 3]: 1.15E+08; Sox 17 Intensity % of control ([1]; concentrated supernatant (10x; ACTD3 4x), assay dilution 1:20, control = R&D Sys Activin A 100 ng/ml): 263%; expression/activity of supernatant measured by SOX17 expression levels ([1]; pUnder expression vector and HEK293F cells): significantly improved |
| B2 | 6380 | 8916 | – | 6548 | 2.075E+08 | 112.8 | – | – | – | 129.7 | comparable expression | higher potency of supernatant concentrated 10× relative to corresponding unconcentrated supernatant ([1]; primary screening, SOX17 expression, H1 cells): 2.6 fold; Sox 17 Intensity average [1, 4]: 9.099E+07; Sox 17 Intensity % of control ([1]; supernatant concentration 1x, assay dilution 1:20, control = R&D Sys Activin A 100 ng/ml on same plate): 49.5%; Sox 17 Intensity average [1, 5]: 2.385E+08 |
| B3 | – | – | 6030 | – | – | – | 8941 | 3.93E+07 | 157.8 | 71.1 | comparable expression | Sox 17 Intensity average [1, 6]: 1.77E+07 |

Source: patent US20110091971A1, “Differentiation of Pluripotent Stem Cells” (priority 2008, published 2011)
